Legend:
[1] = system: SMA patient-derived fibroblasts; test: Confocal microscopy of Cy5 fluorescent uptake; format: cell-based, human; conditions: 1 and 2 µm in OptiMEM without serum, 1 h at 37°C, Cy5 excitation 633 nm
Method: For fluorescent uptake studies, SMA fibroblast cells were plated at a density of 60,000 cells/well of a µ-Slide 4 Well ^Ph+ Glass Bottom chamber slides precoated with poly-L-ornithine. The cells reached 80% confluency after 24 h. They were treated with Cy5-labelled peptide-PNA conjugates made up at a concentration of 1 and 2 µm in OptiMEM without serum for 1 h at 37°C. At 15 min to the end of incubation time, Hoechst (1:1,000 dilution) was added to each well. Cells were washed with PBS and images of cells were taken using the Leica SP8 Resonant Scanning microscope with 63×/1.4 oil objective. The images were acquired at the Cy5-specific excitation of 633 nm and emission of 638–779 nm and Hoechst excitation and emission of 405 nm and 410–585 nm, respectively.

full-length SMN2 mRNA = test: SMN2 exon-inclusion assay (RT-qPCR of full-length SMN2 mRNA); format: cell-based, human; conditions: SMA patient-derived fibroblasts (Type-I, GM03813), conjugates 1 and 2 µm in serum-free Opti-MEM for 4 h at 37°C, then growth medium for 20 h, ∆∆Ct vs HPRT1, normalized to untreated = 1, mean ± SEM, N = 3
[2] = concentration range of 20–30 µm; peptides alone and as conjugate to ASOs; ref Neundorf et al., 2009; Shabanpoor et al., 2017; cited from earlier work
Excerpt: We chose an FDA-approved oligonucleotide sequence (Table 1) targeting survival motor neuron-2 (SMN2) mRNA splice correction as a model ASO (in PNA chemistry) for conjugation to a previously characterized CPP derived from the receptor-binding domain of Apolipoprotein E [ApoE(133–150)] ([Meloni et al., 2020]). In order to synthesize trifunctional conjugates, three different functional moieties were selected for conjugation to the side-chain of […] that was generated during NCL of CPP-ASO. These functional moieties include the FDA-approved oligonucleotide sequence as above but incorporated in ...

## Ac-LRVRLASHLRKLRKRLLR-X-G-C-X-ATTCACTTTCATAATGCTGG | Cy5 [C2, Cy5-labelled ApoE-PNA conjugate, fluorophore on the cysteine thiol of C1]
[1]
  uptake in fibroblasts (Cy5 fluorescence): concentration-dependent increase in uptake

## Ac-LRVRLASHLRKLRKRLLR-X-G-C-X-ATTCACTTTCATAATGCTGG | Mal-ATTCACTTTCATAATGCTGG [C3, trifunctional conjugate of C1 with maleimide-PMO (SMN2) on the cysteine thiol]
full-length SMN2 mRNA
  antisense activity (change in the level of full-length SMN2 mRNA): higher activity compared to the peptide-PNA (C1) conjugate

## ApoE: previously characterized CPP derived from the receptor-binding domain of Apolipoprotein E (LRVRLASHLRKLRKRLLR; UniProt P02649 151-168, looked up, fragment)
[2]
  cytotoxic effect: no significant cytotoxic effect
